The text below walks through data of paper PMC6116203.

In general, stoichiometry N refers to the number of molecules, sites or subunits per partner or assembly.

The test deals with R1 pyocin fiber PLES_06171 fragment (residues 323–701) (Pseudomonas aeruginosa LESB58). Kind of test: crystal structure.

In the case of “R1 pyocin fiber PLES_06171 fragment (residues 323–701) (domain or fragment)”, the stoichiometry N turned out to be 3.
